Experiments:
Experiment in all cases: protein-fragment complementation
Chc1 = Chc1 (UniProt P22137)
Pfk1 = Pfk1 (UniProt P16861)
Srv2 = Srv2 (UniProt P17555)
Ysc84 = Ysc84 (UniProt P32793)
Tif4631 = Tif4631 (UniProt P39935)
Ssb2 = Ssb2 (UniProt P40150)
Las17 = Las17 (UniProt Q12446)
Bbc1 = Bbc1 (UniProt P47068)
Ssz1 = Ssz1 (UniProt P38788)
Hsp104 = Hsp104 (UniProt P31539)
Cdc3 = Cdc3 (UniProt P32457)
Pkh2 = target: Pkh2
Rvs167 = Rvs167 (UniProt P39743)
Aim21 = Aim21 (UniProt P40563)
Sla1 = Sla1 (UniProt P32790)
Lsb3 = Lsb3 (UniProt P43603)
Pab1 = Pab1 (UniProt P04147)
Bmh1 = Bmh1 (UniProt P29311)
Tdh3 = Tdh3 (UniProt P00359)
UniProt P00359, sequence (P00359 whole entry): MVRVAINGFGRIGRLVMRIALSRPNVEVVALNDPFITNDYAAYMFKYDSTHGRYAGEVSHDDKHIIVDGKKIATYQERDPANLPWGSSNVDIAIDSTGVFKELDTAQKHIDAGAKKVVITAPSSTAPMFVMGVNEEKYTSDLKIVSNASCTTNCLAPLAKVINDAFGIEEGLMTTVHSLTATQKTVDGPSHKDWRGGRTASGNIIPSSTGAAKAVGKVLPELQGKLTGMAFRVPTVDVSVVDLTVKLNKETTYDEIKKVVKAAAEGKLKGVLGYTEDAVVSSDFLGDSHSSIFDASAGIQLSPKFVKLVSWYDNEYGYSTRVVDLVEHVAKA

Mid2 = Mid2 (UniProt P36027)
Cdc10 = Cdc10 (UniProt P25342)
Osh2 = Osh2 (UniProt Q12451)
Sla2 = Sla2 (UniProt P33338)
Cmd1 = Cmd1 (UniProt P06787)
UniProt P06787, sequence (P06787 whole entry): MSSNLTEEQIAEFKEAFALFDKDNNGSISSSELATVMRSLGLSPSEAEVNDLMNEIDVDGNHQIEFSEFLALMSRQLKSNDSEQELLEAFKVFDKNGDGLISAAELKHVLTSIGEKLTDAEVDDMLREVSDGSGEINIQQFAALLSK

Ygl242c = Ygl242c (UniProt P53066)
Vrp1 = Vrp1 (UniProt P37370)
Sbp1 = Sbp1 (UniProt P10080)
UniProt P10080, sequence (P10080 whole entry): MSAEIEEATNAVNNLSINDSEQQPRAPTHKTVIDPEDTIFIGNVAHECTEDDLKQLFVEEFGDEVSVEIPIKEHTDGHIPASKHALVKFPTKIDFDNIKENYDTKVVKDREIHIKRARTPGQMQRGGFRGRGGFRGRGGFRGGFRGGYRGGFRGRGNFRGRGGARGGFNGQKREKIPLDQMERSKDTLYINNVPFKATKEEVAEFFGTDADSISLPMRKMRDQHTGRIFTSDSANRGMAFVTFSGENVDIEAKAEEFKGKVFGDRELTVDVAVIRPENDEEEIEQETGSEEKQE

Smi1 = Smi1 (UniProt P32566)
Ssb1 = Ssb1 (UniProt P11484)
UniProt P11484, sequence (P11484 whole entry): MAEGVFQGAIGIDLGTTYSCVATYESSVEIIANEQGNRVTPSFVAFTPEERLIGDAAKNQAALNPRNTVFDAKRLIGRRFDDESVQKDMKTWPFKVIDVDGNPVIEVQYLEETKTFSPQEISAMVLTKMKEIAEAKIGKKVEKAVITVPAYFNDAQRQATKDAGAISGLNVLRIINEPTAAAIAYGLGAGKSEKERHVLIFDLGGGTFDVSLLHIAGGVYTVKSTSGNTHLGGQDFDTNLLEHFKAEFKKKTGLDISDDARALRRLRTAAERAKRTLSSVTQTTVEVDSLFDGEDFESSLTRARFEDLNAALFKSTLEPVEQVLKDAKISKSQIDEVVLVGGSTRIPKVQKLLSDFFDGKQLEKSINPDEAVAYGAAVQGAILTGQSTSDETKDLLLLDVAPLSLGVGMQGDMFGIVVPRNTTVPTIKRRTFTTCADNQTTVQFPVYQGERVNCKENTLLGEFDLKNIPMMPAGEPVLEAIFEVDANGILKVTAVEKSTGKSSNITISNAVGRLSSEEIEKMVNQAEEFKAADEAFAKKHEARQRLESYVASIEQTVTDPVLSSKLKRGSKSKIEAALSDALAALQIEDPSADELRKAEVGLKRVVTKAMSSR

Syp1 = Syp1 (UniProt P25623)
UniProt P25623, sequence (P25623 whole entry): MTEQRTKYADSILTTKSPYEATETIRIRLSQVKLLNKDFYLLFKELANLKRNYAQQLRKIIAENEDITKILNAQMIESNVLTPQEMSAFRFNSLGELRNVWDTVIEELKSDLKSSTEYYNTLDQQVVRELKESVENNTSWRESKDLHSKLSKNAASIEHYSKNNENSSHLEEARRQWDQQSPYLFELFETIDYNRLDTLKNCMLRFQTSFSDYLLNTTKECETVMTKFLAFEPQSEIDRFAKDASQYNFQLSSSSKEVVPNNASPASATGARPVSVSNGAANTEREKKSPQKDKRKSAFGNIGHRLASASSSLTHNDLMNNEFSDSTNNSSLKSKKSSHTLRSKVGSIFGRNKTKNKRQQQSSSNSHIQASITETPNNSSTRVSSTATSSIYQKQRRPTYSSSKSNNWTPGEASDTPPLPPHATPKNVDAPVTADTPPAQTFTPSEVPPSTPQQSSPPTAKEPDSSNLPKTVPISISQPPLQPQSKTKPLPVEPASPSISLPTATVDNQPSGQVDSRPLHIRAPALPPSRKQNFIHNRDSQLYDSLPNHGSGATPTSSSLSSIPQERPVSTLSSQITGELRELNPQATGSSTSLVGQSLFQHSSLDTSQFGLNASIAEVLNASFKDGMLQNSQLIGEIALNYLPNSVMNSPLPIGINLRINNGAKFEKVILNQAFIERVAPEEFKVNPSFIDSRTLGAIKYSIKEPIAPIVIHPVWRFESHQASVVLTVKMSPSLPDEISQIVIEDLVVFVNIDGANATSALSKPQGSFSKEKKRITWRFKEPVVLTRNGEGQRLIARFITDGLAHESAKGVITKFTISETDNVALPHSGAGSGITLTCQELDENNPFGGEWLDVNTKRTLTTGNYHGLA

Myo5 = Myo5 (UniProt Q04439)
Arc19 = Arc19 (UniProt P33204)
UniProt P33204, sequence (P33204 whole entry): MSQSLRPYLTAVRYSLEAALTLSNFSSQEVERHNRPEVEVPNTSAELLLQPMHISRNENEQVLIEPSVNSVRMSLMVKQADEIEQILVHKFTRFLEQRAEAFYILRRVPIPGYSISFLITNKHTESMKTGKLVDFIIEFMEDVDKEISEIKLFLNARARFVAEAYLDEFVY

Arc18 = Arc18 (UniProt Q05933)
Bzz1 = Bzz1 (UniProt P38822)
UniProt P38822, sequence (P38822 whole entry): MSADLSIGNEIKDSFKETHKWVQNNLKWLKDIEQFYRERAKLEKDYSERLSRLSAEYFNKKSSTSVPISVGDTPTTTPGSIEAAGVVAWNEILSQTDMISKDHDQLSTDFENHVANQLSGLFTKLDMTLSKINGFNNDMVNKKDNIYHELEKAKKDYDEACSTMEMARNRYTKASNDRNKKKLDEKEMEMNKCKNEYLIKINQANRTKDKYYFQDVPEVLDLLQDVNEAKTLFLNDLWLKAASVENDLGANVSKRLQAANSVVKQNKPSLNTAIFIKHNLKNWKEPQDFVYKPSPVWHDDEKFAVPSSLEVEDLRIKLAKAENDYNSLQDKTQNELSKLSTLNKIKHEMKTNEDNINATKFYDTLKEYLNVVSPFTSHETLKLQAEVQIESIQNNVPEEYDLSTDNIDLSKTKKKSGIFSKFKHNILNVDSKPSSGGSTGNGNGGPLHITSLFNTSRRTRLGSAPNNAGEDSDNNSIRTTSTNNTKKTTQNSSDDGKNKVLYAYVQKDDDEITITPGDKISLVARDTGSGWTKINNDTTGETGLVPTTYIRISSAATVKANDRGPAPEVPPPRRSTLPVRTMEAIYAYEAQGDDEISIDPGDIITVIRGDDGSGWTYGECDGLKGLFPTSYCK

Sac6 = Sac6 (UniProt P32599)
Abp1 = Abp1 (UniProt P15891)
Nap1 = Nap1 (UniProt P25293)
Yor1 = Yor1 (UniProt P53049)
Sfk1 = Sfk1 (UniProt P35735)
Arc15 = Arc15 (UniProt P40518)
UniProt P40518, sequence (P40518 whole entry): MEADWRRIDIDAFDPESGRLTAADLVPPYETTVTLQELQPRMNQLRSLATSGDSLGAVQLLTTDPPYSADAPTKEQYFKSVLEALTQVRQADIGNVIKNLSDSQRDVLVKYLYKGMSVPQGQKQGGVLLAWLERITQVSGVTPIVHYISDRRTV

Arc40 = Arc40 (UniProt P38328)
Hek2 = Hek2 (UniProt P38199)
Ste20 = Ste20 (UniProt Q03497)
Pan1 = Pan1 (UniProt P32521)
Ssa1 = Ssa1 (UniProt P10591)

UniProt P22137, sequence (P22137 whole entry): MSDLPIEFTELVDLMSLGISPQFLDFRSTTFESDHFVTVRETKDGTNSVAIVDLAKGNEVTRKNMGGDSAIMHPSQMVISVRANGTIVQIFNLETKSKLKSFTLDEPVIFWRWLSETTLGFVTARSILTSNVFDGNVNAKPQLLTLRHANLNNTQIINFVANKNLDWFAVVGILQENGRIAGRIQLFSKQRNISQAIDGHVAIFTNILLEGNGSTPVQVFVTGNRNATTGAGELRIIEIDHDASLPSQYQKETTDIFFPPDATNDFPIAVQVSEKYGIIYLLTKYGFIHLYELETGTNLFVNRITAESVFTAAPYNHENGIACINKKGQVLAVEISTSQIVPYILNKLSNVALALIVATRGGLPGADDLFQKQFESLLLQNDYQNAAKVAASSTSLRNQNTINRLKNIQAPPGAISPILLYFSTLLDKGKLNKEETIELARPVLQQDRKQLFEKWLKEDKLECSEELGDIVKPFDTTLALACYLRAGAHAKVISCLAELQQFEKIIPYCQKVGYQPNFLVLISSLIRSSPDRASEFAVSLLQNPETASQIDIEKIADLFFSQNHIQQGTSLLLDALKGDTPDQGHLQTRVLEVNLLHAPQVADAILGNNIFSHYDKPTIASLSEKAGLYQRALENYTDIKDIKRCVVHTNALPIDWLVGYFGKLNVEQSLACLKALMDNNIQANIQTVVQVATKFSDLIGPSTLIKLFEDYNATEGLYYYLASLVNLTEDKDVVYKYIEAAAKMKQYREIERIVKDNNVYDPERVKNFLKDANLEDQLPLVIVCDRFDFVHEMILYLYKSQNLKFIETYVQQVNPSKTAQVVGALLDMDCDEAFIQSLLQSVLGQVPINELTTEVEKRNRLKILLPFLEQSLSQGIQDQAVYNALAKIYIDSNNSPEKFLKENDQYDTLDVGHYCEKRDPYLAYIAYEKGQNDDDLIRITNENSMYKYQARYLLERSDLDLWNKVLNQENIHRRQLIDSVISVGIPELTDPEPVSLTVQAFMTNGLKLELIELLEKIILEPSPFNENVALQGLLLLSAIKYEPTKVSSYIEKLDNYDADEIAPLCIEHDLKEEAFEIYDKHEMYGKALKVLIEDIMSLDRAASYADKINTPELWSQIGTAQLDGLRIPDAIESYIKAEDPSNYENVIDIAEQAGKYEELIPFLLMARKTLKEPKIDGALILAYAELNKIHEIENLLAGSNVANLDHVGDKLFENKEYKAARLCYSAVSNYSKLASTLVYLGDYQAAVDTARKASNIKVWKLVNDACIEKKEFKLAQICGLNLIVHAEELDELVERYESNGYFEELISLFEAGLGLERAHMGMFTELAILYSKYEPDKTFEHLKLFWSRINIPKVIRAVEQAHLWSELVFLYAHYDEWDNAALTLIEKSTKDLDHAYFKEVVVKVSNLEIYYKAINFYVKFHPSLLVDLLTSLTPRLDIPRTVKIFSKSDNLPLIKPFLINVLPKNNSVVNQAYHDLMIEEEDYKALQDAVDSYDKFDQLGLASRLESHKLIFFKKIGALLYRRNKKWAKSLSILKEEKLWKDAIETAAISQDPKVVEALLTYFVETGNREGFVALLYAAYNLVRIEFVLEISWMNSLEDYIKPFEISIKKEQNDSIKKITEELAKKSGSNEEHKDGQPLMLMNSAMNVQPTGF
UniProt P40150, sequence (P40150 whole entry): as the sequence (P11484 whole entry) above, with E49Q, M413I, C435V, A436S counted along it

Myo5 with SH3 swapMyo3 (from UniProt Q04439)
interaction score (Chc1): 0.594 | interaction score (Pfk1): 0.862 | interaction score (Srv2): 0.637 | interaction score (Ysc84): 0.459 | interaction score (Tif4631): 0.665 | interaction score (Ssb2): 0.932 | interaction score (Las17): 0.877 | interaction score (Bbc1): 0.755 | interaction score (Ssz1): 0.838 | interaction score (Hsp104): 0.767 | interaction score (Cdc3): 0.472 | interaction score (Pkh2): 0.168 | interaction score (Rvs167): 0.519 | interaction score (Aim21): 0.753 | interaction score (Sla1): 0.535 | interaction score (Lsb3): 0.628 | interaction score (Pab1): 0.795 | interaction score (Bmh1): 0.825 | interaction score (Tdh3): 0.972 | interaction score (Mid2): 0.858 | interaction score (Cdc10): 0.33 | interaction score (Osh2): 0.76 | interaction score (Sla2): 0.632 | interaction score (Cmd1): 0.196 | interaction score (Ygl242c): 0.935 | interaction score (Vrp1): 0.917 | interaction score (Sbp1): 0.824 | interaction score (Smi1): 0.539 | interaction score (Ssb1): 0.934 | interaction score (Syp1): 0.557 | interaction score (Myo5): 0.903 | interaction score (Arc19): 0.762 | interaction score (Arc18): 0.874 | interaction score (Bzz1): 0.818 | interaction score (Sac6): 0.824 | interaction score (Abp1): 0.908 | interaction score (Nap1): 0.479 | interaction score (Yor1): 0.492 | interaction score (Sfk1): 0.714 | interaction score (Arc15): 0.9 | interaction score (Arc40): 0.967 | interaction score (Hek2): 0.387 | interaction score (Ste20): 0.417 | interaction score (Pan1): 0.925

Myo5 with SH3 optMyo5 (from UniProt Q04439)
interaction score (Chc1): 0.603 | interaction score (Pfk1): 0.877 | interaction score (Srv2): 0.658 | interaction score (Ysc84): 0.514 | interaction score (Tif4631): 0.671 | interaction score (Ssb2): 0.932 | interaction score (Las17): 0.875 | interaction score (Bbc1): 0.758 | interaction score (Ssz1): 0.841 | interaction score (Ssa1): 0.908 | interaction score (Hsp104): 0.762 | interaction score (Cdc3): 0.493 | interaction score (Pkh2): 0.124 | interaction score (Rvs167): 0.539 | interaction score (Aim21): 0.758 | interaction score (Sla1): 0.551 | interaction score (Lsb3): 0.639 | interaction score (Pab1): 0.794 | interaction score (Bmh1): 0.831 | interaction score (Tdh3): 0.97 | interaction score (Mid2): 0.866 | interaction score (Cdc10): 0.423 | interaction score (Osh2): 0.768 | interaction score (Sla2): 0.65 | interaction score (Cmd1): 0.319 | interaction score (Ygl242c): 0.948 | interaction score (Vrp1): 0.916 | interaction score (Sbp1): 0.834 | interaction score (Smi1): 0.568 | interaction score (Ssb1): 0.944 | interaction score (Syp1): 0.572 | interaction score (Myo5): 0.915 | interaction score (Arc19): 0.769 | interaction score (Bzz1): 0.814 | interaction score (Sac6): 0.838 | interaction score (Abp1): 0.903 | interaction score (Nap1): 0.509 | interaction score (Yor1): 0.521 | interaction score (Sfk1): 0.723 | interaction score (Arc15): 0.902 | interaction score (Arc40): 0.968 | interaction score (Hek2): 0.412 | interaction score (Ste20): 0.446 | interaction score (Pan1): 0.926

Myo5 with SH3 AncC (from UniProt Q04439)
interaction score (Chc1): 0.578 | interaction score (Srv2): 0.579 | interaction score (Ysc84): 0.431 | interaction score (Tif4631): 0.659 | interaction score (Ssb2): 0.92 | interaction score (Las17): 0.843 | interaction score (Bbc1): 0.712 | interaction score (Ssz1): 0.81 | interaction score (Ssa1): 0.883 | interaction score (Hsp104): 0.76 | interaction score (Cdc3): 0.438 | interaction score (Pkh2): 0.0849 | interaction score (Rvs167): 0.404 | interaction score (Aim21): 0.727 | interaction score (Sla1): 0.489 | interaction score (Lsb3): 0.584 | interaction score (Pab1): 0.783 | interaction score (Bmh1): 0.806 | interaction score (Tdh3): 0.949 | interaction score (Mid2): 0.846 | interaction score (Cdc10): 0.334 | interaction score (Osh2): 0.654 | interaction score (Sla2): 0.575 | interaction score (Cmd1): 0.412 | interaction score (Ygl242c): 0.919 | interaction score (Vrp1): 0.89 | interaction score (Sbp1): 0.816 | interaction score (Smi1): 0.555 | interaction score (Ssb1): 0.93 | interaction score (Syp1): 0.48 | interaction score (Myo5): 0.885 | interaction score (Arc19): 0.72 | interaction score (Arc18): 0.85 | interaction score (Bzz1): 0.782 | interaction score (Sac6): 0.807 | interaction score (Abp1): 0.887 | interaction score (Nap1): 0.469 | interaction score (Yor1): 0.395 | interaction score (Sfk1): 0.685 | interaction score (Arc15): 0.874 | interaction score (Arc40): 0.946 | interaction score (Hek2): 0.421 | interaction score (Ste20): 0.33 | interaction score (Pan1): 0.896

Myo5 with SH3 AncA (from UniProt Q04439)
interaction score (Chc1): 0.583 | interaction score (Srv2): 0.62 | interaction score (Ysc84): 0.458 | interaction score (Tif4631): 0.664 | interaction score (Ssb2): 0.915 | interaction score (Las17): 0.862 | interaction score (Bbc1): 0.722 | interaction score (Ssz1): 0.807 | interaction score (Ssa1): 0.885 | interaction score (Hsp104): 0.755 | interaction score (Cdc3): 0.481 | interaction score (Pkh2): 0.128 | interaction score (Rvs167): 0.525 | interaction score (Aim21): 0.744 | interaction score (Sla1): 0.527 | interaction score (Lsb3): 0.616 | interaction score (Pab1): 0.783 | interaction score (Bmh1): 0.791 | interaction score (Tdh3): 0.947 | interaction score (Mid2): 0.848 | interaction score (Cdc10): 0.39 | interaction score (Osh2): 0.738 | interaction score (Sla2): 0.633 | interaction score (Cmd1): 0.216 | interaction score (Ygl242c): 0.917 | interaction score (Vrp1): 0.892 | interaction score (Sbp1): 0.792 | interaction score (Smi1): 0.53 | interaction score (Ssb1): 0.918 | interaction score (Syp1): 0.526 | interaction score (Myo5): 0.889 | interaction score (Arc19): 0.754 | interaction score (Arc18): 0.844 | interaction score (Bzz1): 0.801 | interaction score (Sac6): 0.801 | interaction score (Abp1): 0.89 | interaction score (Nap1): 0.489 | interaction score (Yor1): 0.473 | interaction score (Sfk1): 0.711 | interaction score (Arc15): 0.865 | interaction score (Arc40): 0.937 | interaction score (Hek2): 0.391 | interaction score (Ste20): 0.447 | interaction score (Pan1): 0.908
